Here are results for six sequences from the supplement of paper PMC5998384.

The test system of data set [1] is HeLa Kyoto. Kind of data set: solubility change mitosis vs G1/S (difference of NP-40 vs SDS log2 ratios) (log2 ratio difference); higher = more soluble in mitosis.
The subject of data set [2] is HeLa Kyoto. The experiment in a line: thermal stability score vs G1/S (z-score of summed log2 fold changes over temperatures); higher = more thermally stable than in G1/S.
Data set [3] concerns HeLa Kyoto. Kind of data set: melting temperature (median over replicates), in situ; higher = more thermally stable.
For data set [4], the system named is HeLa Kyoto. Kind of data set: solubility in G1/S (NP-40 vs SDS abundance) (log2 ratio); higher = more soluble. As to conditions: cell cycle stage: G1/S.
Setting [5] is: cell cycle stage: early G1 (4.5 h after nocodazole release).
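Throughout, for melting temperature (median over replicates), in situ: HeLa Kyoto cells synchronized by double thymidine or nocodazole block, proteins quantified by TMT10plex mass spectrometry, three independent biological replicates.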
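Throughout, for solubility change mitosis vs G1/S (difference of NP-40 vs SDS log2 ratios): synchronized HeLa Kyoto cells (double thymidine block for G1/S, nocodazole release for mitosis), protein amounts in NP-40 versus SDS lysates quantified by mass spectrometry, three biological replicates.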
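Throughout, for solubility in G1/S (NP-40 vs SDS abundance): HeLa Kyoto cells arrested at G1/S by double thymidine block, proteins quantified by TMT10plex mass spectrometry in mild NP-40 versus SDS extracts, three biological replicates.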
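Throughout, for thermal stability score vs G1/S (z-score of summed log2 fold changes over temperatures): synchronized HeLa Kyoto cells, proteins quantified by TMT10plex mass spectrometry, three biological replicates, mitosis taken 0.5 h after nocodazole release, G1/S directly after double thymidine block.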

As to “MTHSLVCPETVSRVSSVLNRNTRQFGKKHLFDQDEETCWNSDQGPSQWVTLEFPQLIRVSQLQIQFQGGFSSRRGCLEGSQGTQALHKIVDFYPEDNNSLQTFPIPAAEVDRLKVTFEDATDFFGRVVIYHLRVLGEKV [NR2C2AP]”, the “solubility change mitosis (log2)” value in data set [1] was -0.238. The thermal stability score in data set [2] (setting [5]) is 0.143; in data set [2] (cell cycle stage: mitosis) it was -0.215. Besides, the melting temperature in data set [3] (cell cycle stage: G1/S) came out at 53.3 °C; in data set [3] (cell cycle stage: mitosis), 52.8 °C. For the same sequence, in data set [4], the “solubility in G1/S (log2)” value is 0.195.

As for “MTLEAIRYSRGSLQILDQLLLPKQSRYEAVGSVHQAWEAIRAMKVRGAPAIALVGCLSLAVELQAGAGGPGLAALVAFVRDKLSFLVTARPTAVNMARAARDLADVAAREAEREGATEEAVRERVICCTEDMLEKDLRDNRSIGDLGARHLLERVAPSGGKVTVLTHCNTGALATAGYGTALGVIRSLHSLGRLEHAFCTETRPYNQGARLTAFELVYEQIPATLITDSMVAAAMAHRGVSAVVVGADRVVANGDTANKVGTYQLAIVAKHHGIPFYVAAPSSSCDLRLETGKEIIIEERPGQELTDVNGVRIAAPGIGVWNPAFDVTPHDLITGGIITELGVFAPEELRTALTTTISSRDGTLDGPQM [MRI1]”, in data set [1], the “solubility change mitosis (log2)” value was -0.154. Besides, the thermal stability score was -0.841 in data set [2] (setting [5]) and -0.966 in data set [2] (cell cycle stage: mitosis). The melting temperature in data set [3] (cell cycle stage: G1/S) stood at 52.5 °C; in data set [3] (cell cycle stage: mitosis) it was 52.4 °C. The “solubility in G1/S (log2)” value in data set [4] amounted to 0.21.

As for “MTLTERLREKISRAFYNHGLLCASYPIPIILFTGFCILACCYPLLKLPLPGTGPVEFTTPVKDYSPPPVDSDRKQGEPTEQPEWYVGAPVAYVQQIFVKSSVFPWHKNLLAVDVFRSPLSRAFQLVEEIRNHVLRDSSGIRSLEELCLQVTDLLPGLRKLRNLLPEHGCLLLSPGNFWQNDWERFHADPDIIGTIHQHEPKTLQTSATLKDLLFGVPGKYSGVSLYTRKRMVSYTITLVFQHYHAKFLGSLRARLMLLHPSPNCSLRAESLVHVHFKEEIGVAELIPLVTTYIILFAYIYFSTRKIDMVKSKWGLALAAVVTVLSSLLMSVGLCTLFGLTPTLNGGEIFPYLVVVIGLENVLVLTKSVVSTPVDLEVKLRIAQGLSSESWSIMKNMATELGIILIGYFTLVPAIQEFCLFAVVGLVSDFFLQMLFFTTVLSIDIRRMELADLNKRLPPEACLPSAKPVGQPTRYERQLAVRPSTPHTITLQPSSFRNLRLPKRLRVVYFLARTRLAQRLIMAGTVVWIGILVYTDPAGLRNYLAAQVTEQSPLGEGALAPMPVPSGMLPPSHPDPAFSIFPPDAPKLPENQTSPGESPERGGPAEVVHDSPVPEVTWGPEDEELWRKLSFRHWPTLFSYYNITLAKRYISLLPVIPVTLRLNPREALEGRHPQDGRSAWPPPGPIPAGHWEAGPKGPGGVQAHGDVTLYKVAALGLATGIVLVLLLLCLYRVLCPRNYGQLGGGPGRRRRGELPCDDYGYAPPETEIVPLVLRGHLMDIECLASDGMLLVSCCLAGHVCVWDAQTGDCLTRIPRPGRQRRDSGVGSGLEAQESWERLSDGGKAGPEEPGDSPPLRHRPRGPPPPSLFGDQPDLTCLIDTNFSAQPRSSQPTQPEPRHRAVCGRSRDSPGYDFSCLVQRVYQEEGLAAVCTPALRPPSPGPVLSQAPEDEGGSPEKGSPSLAWAPSAEGSIWSLELQGNLIVVGRSSGRLEVWDAIEGVLCCSSEEVSSGITALVFLDKRIVAARLNGSLDFFSLETHTALSPLQFRGTPGRGSSPASPVYSSSDTVACHLTHTVPCAHQKPITALKAAAGRLVTGSQDHTLRVFRLEDSCCLFTLQGHSGAITTVYIDQTMVLASGGQDGAICLWDVLTGSRVSHVFAHRGDVTSLTCTTSCVISSGLDDLISIWDRSTGIKFYSIQQDLGCGASLGVISDNLLVTGGQGCVSFWDLNYGDLLQTVYLGKNSEAQPARQILVLDNAAIVCNFGSELSLVYVPSVLEKLD [SCAP]”, the “solubility change mitosis (log2)” value in data set [1] was -0.108. In addition, the values for the thermal stability score in data set [2] (setting [5]) and in data set [2] (cell cycle stage: mitosis) were -0.535 and 0.3, respectively. The melting temperature in data set [3] (cell cycle stage: G1/S) turned out to be 53.4 °C; in data set [3] (cell cycle stage: mitosis), 52.8 °C. Further, the “solubility in G1/S (log2)” value in data set [4] is -0.105.

Consider “MTMPVNGAHKDADLWSSHDKMLAQPLKDSDVEVYNIIKKESNRQRVGLELIASENFASRAVLEALGSCLNNKYSEGYPGQRYYGGTEFIDELETLCQKRALQAYKLDPQCWGVNVQPYSGSPANFAVYTALVEPHGRIMGLDLPDGGHLTHGFMTDKKKISATSIFFESMPYKVNPDTGYINYDQLEENARLFHPKLIIAGTSCYSRNLEYARLRKIADENGAYLMADMAHISGLVAAGVVPSPFEHCHVVTTTTHKTLRGCRAGMIFYRKGVKSVDPKTGKEILYNLESLINSAVFPGLQGGPHNHAIAGVAVALKQAMTLEFKVYQHQVVANCRALSEALTELGYKIVTGGSDNHLILVDLRSKGTDGGRAEKVLEACSIACNKNTCPGDRSALRPSGLRLGTPALTSRGLLEKDFQKVAHFIHRGIELTLQIQSDTGVRATLKEFKERLAGDKYQAAVQALREEVESFASLFPLPGLPDF [SHMT1]”, for which, in data set [1], the “solubility change mitosis (log2)” value was -0.0876. Moreover, the thermal stability score in data set [2] (setting [5]) is -2.14; in data set [2] (cell cycle stage: mitosis), -2.12. The melting temperature in data set [3] (cell cycle stage: G1/S) and in data set [3] (cell cycle stage: mitosis) was 58.2 °C in each case. Besides, the “solubility in G1/S (log2)” value in data set [4] turned out to be 0.366.

For “MTSEVIEDEKQFYSKAKTYWKQIPPTVDGMLGGYGHISSIDINSSRKFLQRFLREGPNKTGTSCALDCGAGIGRITKRLLLPLFREVDMVDITEDFLVQAKTYLGEEGKRVRNYFCCGLQDFTPEPDSYDVIWIQWVIGHLTDQHLAEFLRRCKGSLRPNGIIVIKDNMAQEGVILDDVDSSVCRDLDVVRRIICSAGLSLLAEERQENLPDEIYHVYSFALR [NTMT1]”, the “solubility change mitosis (log2)” value in data set [1] is -0.15. The thermal stability score in data set [2] (setting [5]) is 1.31; in data set [2] (cell cycle stage: mitosis) it was 1.61. Also, the melting temperature in data set [3] (cell cycle stage: G1/S) was determined as 49.9 °C; in data set [3] (cell cycle stage: mitosis) it was 51.2 °C. In addition, in data set [4], the “solubility in G1/S (log2)” value was 0.238.

As to “MTSGATRYRLSCSLRGHELDVRGLVCCAYPPGAFVSVSRDRTTRLWAPDSPNRSFTEMHCMSGHSNFVSCVCIIPSSDIYPHGLIATGGNDHNICIFSLDSPMPLYILKGHKNTVCSLSSGKFGTLLSGSWDTTAKVWLNDKCMMTLQGHTAAVWAVKILPEQGLMLTGSADKTVKLWKAGRCERTFSGHEDCVRGLAILSETEFLSCANDASIRRWQITGECLEVYYGHTNYIYSISVFPNCRDFVTTAEDRSLRIWKHGECAQTIRLPAQSIWCCCVLDNGDIVVGASDGIIRVFTESEDRTASAEEIKAFEKELSHATIDSKTGDLGDINAEQLPGREHLNEPGTREGQTRLIRDGEKVEAYQWSVSEGRWIKIGDVVGSSGANQQTSGKVLYEGKEFDYVFSIDVNEGGPSYKLPYNTSDDPWLTAYNFLQKNDLNPMFLDQVAKFIIDNTKGQMLGLGNPSFSDPFTGGGRYVPGSSGSSNTLPTADPFTGAGRYVPGSASMGTTMAGVDPFTGNSAYRSAASKTMNIYFPKKEAVTFDQANPTQILGKLKELNGTAPEEKKLTEDDLILLEKILSLICNSSSEKPTVQQLQILWKAINCPEDIVFPALDILRLSIKHPSVNENFCNEKEGAQFSSHLINLLNPKGKPANQLLALRTFCNCFVGQAGQKLMMSQRESLMSHAIELKSGSNKNIHIALATLALNYSVCFHKDHNIEGKAQCLSLISTILEVVQDLEATFRLLVALGTLISDDSNAVQLAKSLGVDSQIKKYSSVSEPAKVSECCRFILNLL [PLAA]”, the “solubility change mitosis (log2)” value in data set [1] is -0.198. Moreover, the values for the thermal stability score in data set [2] (setting [5]) and in data set [2] (cell cycle stage: mitosis) were 1.32 and 1.3, respectively. In addition, the values for the melting temperature in data set [3] (cell cycle stage: G1/S) and in data set [3] (cell cycle stage: mitosis) were 49.5 °C and 50 °C, respectively. In data set [4], the “solubility in G1/S (log2)” value was -0.0389.
